The values that follow come from paper PMC6378684 (Journal of Molecular Biology, 2019).

Assay [1] concerns the target T1, Cut7MD (fission yeast kinesin-5 Cut7 motor domain) (Schizosaccharomyces pombe, UniProt P24339).
T1 construct: monomeric motor domain, residues 67-432, lacks N-terminal extension; His6 tag removed by TEV; expressed in E. coli BL21*(DE3)
T1 sequence (P24339 67-432): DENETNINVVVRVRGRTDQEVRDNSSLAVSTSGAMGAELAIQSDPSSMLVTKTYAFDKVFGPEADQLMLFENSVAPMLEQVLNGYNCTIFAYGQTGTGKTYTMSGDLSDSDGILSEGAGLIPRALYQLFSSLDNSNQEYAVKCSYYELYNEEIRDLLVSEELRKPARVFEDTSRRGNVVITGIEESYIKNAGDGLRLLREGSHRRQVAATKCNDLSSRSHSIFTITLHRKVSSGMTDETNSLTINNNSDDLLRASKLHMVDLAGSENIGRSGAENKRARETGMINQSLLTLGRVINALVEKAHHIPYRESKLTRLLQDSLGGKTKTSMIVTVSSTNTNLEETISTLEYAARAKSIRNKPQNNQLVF
The assay can be described thus: cryo-EM structure, […] Å. Format: binding. The conditions noted are these: nucleotide pocket, with Mg; bound to S. pombe microtubules.

Assay [2] concerns the target T1, Cut7MD (fission yeast kinesin-5 Cut7 motor domain). The assay can be described thus: microtubule-stimulated ATPase, pyruvate kinase / lactate dehydrogenase coupled. Format: biochemical. As to conditions: 5 mM ATP; epothilone-stabilised S. pombe microtubules; 1 mM MgCl2, pH 8.0, 32 °C.
For assay [3] the target is unchanged. The assay can be described thus: microtubule-stimulated steady-state ATPase, enzyme-coupled. In kind it is biochemical. As to conditions: 3.8 μM motor; 100 nM mammalian (bovine) microtubules.
Assay [4] concerns the target S. pombe tubulin microtubules (Sp_tub MTs), epothilone-stabilised (S. pombe) (UniProt P04688).
Assay [5] deals with Mammalian brain tubulin microtubules (Mam_tub MTs), paclitaxel-stabilised (bovine), Q6B856.
Mammalian brain tubulin microtubules (Mam_tub MTs), paclitaxel-stabilised (bovine), Q6B856, sequence (Q6B856 whole entry, looked up): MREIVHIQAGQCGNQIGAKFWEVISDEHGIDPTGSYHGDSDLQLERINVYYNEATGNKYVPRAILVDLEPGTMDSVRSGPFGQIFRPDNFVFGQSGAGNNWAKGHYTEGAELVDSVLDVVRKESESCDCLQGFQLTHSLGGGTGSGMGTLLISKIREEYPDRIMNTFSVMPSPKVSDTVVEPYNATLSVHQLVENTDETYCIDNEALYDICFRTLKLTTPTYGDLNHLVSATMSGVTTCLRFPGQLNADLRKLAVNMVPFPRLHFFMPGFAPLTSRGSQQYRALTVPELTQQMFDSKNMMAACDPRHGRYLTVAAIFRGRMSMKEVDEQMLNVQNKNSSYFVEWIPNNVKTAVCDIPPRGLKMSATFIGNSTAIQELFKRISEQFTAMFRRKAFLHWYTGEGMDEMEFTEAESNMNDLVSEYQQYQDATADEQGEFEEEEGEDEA

S. pombe tubulin microtubules (Sp_tub MTs), epothilone-stabilised (S. pombe), sequence (P04688 whole entry, chain 1 of 2): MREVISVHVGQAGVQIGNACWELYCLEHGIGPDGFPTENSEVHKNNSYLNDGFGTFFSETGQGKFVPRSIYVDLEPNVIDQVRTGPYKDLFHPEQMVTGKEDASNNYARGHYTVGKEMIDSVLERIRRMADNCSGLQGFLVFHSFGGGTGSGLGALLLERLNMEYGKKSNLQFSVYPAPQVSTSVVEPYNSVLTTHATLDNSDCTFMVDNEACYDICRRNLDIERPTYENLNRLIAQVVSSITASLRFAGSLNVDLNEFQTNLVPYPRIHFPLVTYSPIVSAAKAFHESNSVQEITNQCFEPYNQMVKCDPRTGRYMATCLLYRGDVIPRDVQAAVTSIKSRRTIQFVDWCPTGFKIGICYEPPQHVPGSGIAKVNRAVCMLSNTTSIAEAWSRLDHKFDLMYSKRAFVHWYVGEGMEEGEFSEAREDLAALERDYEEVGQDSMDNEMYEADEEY
S. pombe tubulin microtubules (Sp_tub MTs), epothilone-stabilised (S. pombe), sequence (P05219 whole entry, chain 2 of 2, further chain): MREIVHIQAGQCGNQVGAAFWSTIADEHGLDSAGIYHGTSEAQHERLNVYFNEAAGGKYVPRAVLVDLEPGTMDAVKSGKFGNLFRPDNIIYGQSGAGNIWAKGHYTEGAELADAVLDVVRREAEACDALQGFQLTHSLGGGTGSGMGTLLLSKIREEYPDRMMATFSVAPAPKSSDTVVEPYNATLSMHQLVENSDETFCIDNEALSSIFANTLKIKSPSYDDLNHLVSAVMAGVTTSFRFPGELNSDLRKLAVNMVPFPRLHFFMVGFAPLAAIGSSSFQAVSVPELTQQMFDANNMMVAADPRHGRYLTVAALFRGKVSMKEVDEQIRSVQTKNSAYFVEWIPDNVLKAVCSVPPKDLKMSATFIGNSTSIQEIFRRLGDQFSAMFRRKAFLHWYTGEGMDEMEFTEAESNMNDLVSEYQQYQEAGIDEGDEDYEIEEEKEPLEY

`Nc1ncnc2c1ncn2[C@@H]1O[C@H](COP(=O)(O)OP(=O)(O)NP(=O)(O)O)[C@@H](O)[C@H]1O` [AMPPNP, adenosine 5′-(β,γ-imido)triphosphate]: the “cryo-EM structure, 4.5 Å” value in assay [1] is recorded as “strong density in the nucleotide binding pocket corresponding to bound Mg-AMPPNP”.
As for `Nc1ncnc2c1ncn2[C@@H]1O[C@H](COP(=O)(O)OP(=O)(O)OP(=O)(O)O)[C@@H](O)[C@H]1O` [ATP], the “microtubule-stimulated ATPase, pyruvate kinase / lactate dehydrogenase coupled” value in assay [2] is “we measured the steady-state ATPase activity of Cut7MD on Sp_tub MTs and Mam_tub MTs”.
With `N[C@@H](CSC(c1ccccc1)(c1ccccc1)c1ccccc1)C(=O)O` [STLC, (+)-S-trityl-L-cysteine], the “% of their uninhibited rates at 2 μM and 20 μM” value in assay [3] was “Cut7MD is not detectably inhibited by STLC”.
Consider “Cut7 motor domain (Cut7MD), residues 67–432 of the fission yeast kinesin-5 Cut7 (from UniProt P24339 67-432) (domain or fragment)”, for which, in assay [4], the K0.5MT of the MT-stimulated steady-state ATPase of Cut7MD (Hanes–Woolf plot) amounted to 13.4 nM, the K0.5MT of the MT-stimulated steady-state ATPase of Cut7MD (Michaelis–Menten fit) was 13.9 nM, the Vmax of the MT-stimulated steady-state ATPase of Cut7MD (Hanes–Woolf plot) is 1.17 ATP/s and the Vmax of the MT-stimulated steady-state ATPase of Cut7MD (Michaelis–Menten fit) was found to be 1.14 ATP/s.

B1: Cut7 motor domain (Cut7MD), residues 67–432 of the fission yeast kinesin-5 Cut7, P24339 67-432 (domain or fragment)
chain: DENETNINVVVRVRGRTDQEVRDNSSLAVSTSGAMGAELAIQSDPSSMLVTKTYAFDKVFGPEADQLMLFENSVAPMLEQVLNGYNCTIFAYGQTGTGKTYTMSGDLSDSDGILSEGAGLIPRALYQLFSSLDNSNQEYAVKCSYYELYNEEIRDLLVSEELRKPARVFEDTSRRGNVVITGIEESYIKNAGDGLRLLREGSHRRQVAATKCNDLSSRSHSIFTITLHRKVSSGMTDETNSLTINNNSDDLLRASKLHMVDLAGSENIGRSGAENKRARETGMINQSLLTLGRVINALVEKAHHIPYRESKLTRLLQDSLGGKTKTSMIVTVSSTNTNLEETISTLEYAARAKSIRNKPQNNQLVF
With B1, in assay [5], the K0.5MT of the MT-stimulated steady-state ATPase of Cut7MD (Hanes–Woolf plot) worked out at 14.3 nM, the K0.5MT of the MT-stimulated steady-state ATPase of Cut7MD (Michaelis–Menten fit) worked out at 19.9 nM, the Vmax of the MT-stimulated steady-state ATPase of Cut7MD (Hanes–Woolf plot) was 1.19 ATP/s and the Vmax of the MT-stimulated steady-state ATPase of Cut7MD (Michaelis–Menten fit) was 1.25 ATP/s.
